Assay results reported in the DeepSol protein solubility set.

Assay: soluble on expression in E. coli; label from the status in PepcDB or PDB records

Row | Sequence | soluble on expression in E. coli
1 | SIETTKGGSGSYPIKTIVVLVQENRSFDHTLGWFKELNREIDGVTKSDPKSNTVSSSDTNSLRVVFGDQSQYVNPDPGHSIQDIYEQVFGKPWDSGKPDPNPGHPNMSGFAQNAERNKKGMSSAVMNGFKPNALPVYKELVQNFAICDRWFASVPASTQPNRLYVHSATSHGATSNDKKLLLEGFPQKTIFESLDEAGFSFGIYYQFPPSTLFYRNLRKLKYLTHFHQYGIQFKKDCKEGKLPNYVVVEQRWFDLLSTPANDDHPSHDVSEGQKLVKEVYEALRSSPQWNEILFIITYDEHGGFYDHVPTPVDGVPNPDGILGPPPYNFEFNRLGVRVPTFFISPWIEPGTVIHGPNGPYPRSQYEHSSIPATVKTIFKLKDFLSKRDSWAGTFESVITRDSPRQDCPETLSTPIKLRGTMAKENAQLSEFQEDLVIMAAGLKGDYKNEELIHKLCKETCVADASKYVTNAFEKFLEESRKARDRGCDENDIVYCVDDDDDHVVIPPQSHSEASNAAAQPKTQTSFFNKLFSCFIRHD | soluble
2 | SINVYLSLFSQGAESITTYTFNTHKAQHTFCKRCGVQSFYTPRSNPGGFGIAPHCLDEGTVRSVVTEEFNGSDWERAMKEHKTIKNMSKE | soluble
3 | SIVKMLLFQETARHSRAEGEPGASHSGSKQDKVPSSEEGTGCDASVCEAAAATHCEKDVTVSDTENVSSSKNILSHDPDVGTDTMEKEEKTHHACQEMELKVDQSSESTNPTEAELSSETRQGLQLTSGDVGIDQFLRQGDEPKSVNSDASDPGSVRLEPLTPSEVLEYEATEILHDGDDPSANTSDTVSDQTGGSPGGSNPCRAETAVDLADGEERS | soluble
4 | SKAVIVIPARYGSSRLPGKPLLDIVGKPMIQHVYERALQVAGVAEVWVATDDPRVEQAVQAFGGKAIMTRNDHESGTDRLVEVMHKVEADIYINLQGDEPMIRPRDVETLLQGMRDDPALPVATLCHAISAAEAAEPSTVKVVVNTRQDALYFSRSPIPYPRNAEKARYLKHVGIYAYRRDVLQNYSQLPESMPEQAESLEQLRLMNAGINIRTFEVAATGPGVDTPACLEKVRALMAQELAENA | soluble
5 | SKKTVEFVDYVNPLMGTESTFAFSHGNTYPAVAVPWGMNFWSPQTGENGSGWMYTYTDSLMRGFRQTHQPSPWINDYGTFSIMPLAGELKMSHKERLVPFSHQQEKATPYNYSVTFNNGLQTSLSATSRGAVFEVSFPEKEDQYVVVDAYNGGSSITIEPEKRLVKGATRYNNGGVPDNFANYFMMEFSHPVIEYGTYNGDTLLHHQTDVAADYTCAYLKFDVPAGEKLTIRTASSFISPEQAAINFNREVADADVQLISGKAREQWNNYLGRVEAEGGTDEQLRTFYSCLYRTLLFPREFYEFDSQGNPVYYSPYDGNVHDGYMYTDNGFWDTFRAVHPLFTLLYPEVSERVTQSIINAYNESGFMPEWASPGHRGCMIGNNSVSLLVDAWMKGIQTVDAEKALEAMIHQTQARHAEIASVGRDGFEYYDKLGYVPYPEVPEATAKTLEYAYADWCIARFAESLGKQDIADQYYQKAPNYRNLYYPEHGFMWTKDAKGNWRDRFDATEWGGPFTEGSSWHWTWSVFHDPEGLSELMGGHEPMIARLDSMFVAPNTYNYGTYGFVIHEIAEMVALNMGQYAHGNQPVQHAIYLYDYIGQPWKTQYHLRNVMDKLYNSGSKGYCGDEDNGQTSAWYVFSAMGFYPVCPGMPEYAIGSPLFKKVTLHLPEGKNFVVSAADNAADRPYIRKALLNGQEFTRNYLTHDELKQGGELNLSMDSVPNQQRGTQPADFPYSYSK | soluble
6 | SKLSPIIMIPGSSATENRFDGLVRKLNQDRRGTKHSLLKVKVWNNGRITFEGKIRKNDNEPIIVIGFENNKDGYSNIKKQAKMMNQAFEALQNKYNFNNFKGLAHSNGGLIYTAFIENDLSDYDVKINSLMTIGTPYNFTETNIKNKSVMLADFIAAKENIPSTLHVYSVAGTITYDSDELVPDASVSAGKYIYQNQAKSYTEITVTGEDAQHSDLPTNDEVVDLIKQHIEGQGLRKKQKTKLEPQ | not soluble
7 | SKSRRWVFALRHGERVDLTYGPWVPHCFENDTYVRKDLNLPLKLAHRAGGKGGYVKDTPLTRLGWFQAQLVGEGMRMAGVSIKHVYASPALRCVETAQGFLDGLRADPSVKIKVEPGLFEFKNWHMPKGIDFMTPIELCKAGLNVDMTYKPYVEMDASAETMDEFFKRGEVAMQAAVNDTEKDGGNVIFIGHAITLDQMVGALHRLRDDMEDVQPYEIGRNLLKVPYCALGAMRGKPWDVVSPPCPPSINSSSGRFDWRILIK | soluble
